Reference: patent US20240293478A1 (ACTYM THERAPEUTICS, published 2024)

T1: Human DLL3 (R&D Systems) (human, UniProt Q9NYJ7 27-492, limits assumed)
T1 sequence (looked up): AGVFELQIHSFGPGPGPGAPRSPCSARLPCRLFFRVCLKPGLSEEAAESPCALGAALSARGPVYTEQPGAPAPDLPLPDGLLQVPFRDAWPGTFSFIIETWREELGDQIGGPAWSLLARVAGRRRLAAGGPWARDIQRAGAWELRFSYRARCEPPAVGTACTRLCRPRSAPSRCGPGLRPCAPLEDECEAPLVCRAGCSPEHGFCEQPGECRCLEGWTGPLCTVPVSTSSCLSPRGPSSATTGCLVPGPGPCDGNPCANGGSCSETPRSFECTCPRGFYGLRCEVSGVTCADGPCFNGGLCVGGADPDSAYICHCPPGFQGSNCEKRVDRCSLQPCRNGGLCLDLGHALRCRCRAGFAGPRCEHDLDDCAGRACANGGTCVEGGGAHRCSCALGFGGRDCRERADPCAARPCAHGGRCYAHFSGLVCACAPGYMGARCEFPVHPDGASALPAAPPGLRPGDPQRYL

T2: DLL3 on SHP77 cells (UniProt Q9NYJ7 27-618, limits assumed)
T2 construct: whole, on cells; also called delta-like ligand 3
T2 sequence (looked up): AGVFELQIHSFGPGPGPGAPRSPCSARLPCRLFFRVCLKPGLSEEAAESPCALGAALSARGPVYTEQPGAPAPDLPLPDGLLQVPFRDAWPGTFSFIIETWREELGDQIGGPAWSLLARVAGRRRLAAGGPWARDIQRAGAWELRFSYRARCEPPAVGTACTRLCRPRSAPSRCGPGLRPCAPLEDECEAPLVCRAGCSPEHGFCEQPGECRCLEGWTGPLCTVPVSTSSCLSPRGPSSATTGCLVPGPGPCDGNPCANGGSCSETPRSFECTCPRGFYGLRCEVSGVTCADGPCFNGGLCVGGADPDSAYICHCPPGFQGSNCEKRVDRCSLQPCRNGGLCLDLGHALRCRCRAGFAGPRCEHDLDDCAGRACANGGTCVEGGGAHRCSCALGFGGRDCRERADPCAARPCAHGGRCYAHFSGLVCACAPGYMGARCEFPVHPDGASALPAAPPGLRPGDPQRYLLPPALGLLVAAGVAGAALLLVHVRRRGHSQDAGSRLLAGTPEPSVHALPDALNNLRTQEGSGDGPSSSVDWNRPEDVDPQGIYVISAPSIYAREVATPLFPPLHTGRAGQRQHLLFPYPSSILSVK

B1: SC16.15 DLL3HL×CD3HL (bispecific antibody)
chain: QVQLQQSGAELAKPGASVKMSCKASGYTFTRYWIHWIKQRPGQGLEWIGYINPTTVYTEFNQNFKDKATLTADKSSTTASMQLSSLTSEDSAVYYCARGGSNFFDYWGQGTTLTVSSGGGGSGGGGSGGGGSDIQMTQSPASLAASVGETVAITCRASENIYYNLAWYQQKQGKSPQLLIYTANSLEDGVPSRFSGSGSGTQYSLKINSMQPEDSATYFCKQAYDVPPTFGGGTKLEIKGGGGSEVQLVESGGGLVQPGKSLKLSCEASGFTFSGYGMHWVRQAPGRGLESVAYITSSSINIKYADAVKGRFTVSRDNAKNLLFLQMNILKSEDTAMYYCARFDWDKNYWGQGTMVTVSSGGGGSGGGGSGGGGSDIQMTQSPSSLPASLGDRVTINCQASQDISNYLNWYQQKPGKAPKLLIYYTNKLADGVPSRFSGSGSGRDSSFTISSLESEDIGSYYCQQYYNYPWTFGPGTKLEIKDYKDDDDK
notes: the leader is left out here; Tested as HEK293T supernatant; also called SC16.15 DLL3HLxCD3HL BiTE
B2: SC16.34 DLL3HL×CD3HL (bispecific antibody)
chain: QIQLVQSGPELKRPGETVKISCKASGYTFTNYGMNWVKQAPGKGLKWMGWINTYTGDPTYADDFKGRFAFSLETSASTAYLQINNLKNEDTATYFCARIGGNSPSDYWGQGTSLTVSSGGGGSGGGGSGGGGSSIVMTQTPKFLLVSAGDRVTITCKASQSVSNDVAWYQQKPGQSPKLLIYYASNRYSGVPDRFTGSGYGTDFTFTISTVQAEDLAVYFCQQDYSSPWTFGGGTKLEIKGGGGSEVQLVESGGGLVQPGKSLKLSCEASGFTFSGYGMHWVRQAPGRGLESVAYITSSSINIKYADAVKGRFTVSRDNAKNLLFLQMNILKSEDTAMYYCARFDWDKNYWGQGTMVTVSSGGGGSGGGGSGGGGSDIQMTQSPSSLPASLGDRVTINCQASQDISNYLNWYQQKPGKAPKLLIYYTNKLADGVPSRFSGSGSGRDSSFTISSLESEDIGSYYCQQYYNYPWTFGPGTKLEIKDYKDDDDK
notes: the leader is left out here; Tested as HEK293T supernatant; also called SC16.34 DLL3HLxCD3HL BiTE
B3: SC16.56 DLL3LH×CD3HL (bispecific antibody)
chain: SIVMTQTPKFLLVSAGDRVTITCKASQSVSNDVVWYQQKPGQSPKLLIYYASNRYTGVPDRFAGSGYGTDFSFTISTVQAEDLAVYFCQQDYTSPWTFGGGTKLEIRGGGGSGGGGSGGGGSQIQLVQSGPELKKPGETVKISCKASGYTFTNYGMNWVKQAPGKGLKWMAWINTYTGEPTYADDFKGRFAFSLETSASTASLQIINLKNEDTATYFCARIGDSSPSDYWGQGTTLTVSSGGGGSEVQLVESGGGLVQPGKSLKLSCEASGFTFSGYGMHWVRQAPGRGLESVAYITSSSINIKYADAVKGRFTVSRDNAKNLLFLQMNILKSEDTAMYYCARFDWDKNYWGQGTMVTVSSGGGGSGGGGSGGGGSDIQMTQSPSSLPASLGDRVTINCQASQDISNYLNWYQQKPGKAPKLLIYYTNKLADGVPSRFSGSGSGRDSSFTISSLESEDIGSYYCQQYYNYPWTFGPGTKLEIKDYKDDDDK
notes: the leader is left out here; Tested as HEK293T supernatant; also called SC16.56 DLL3LHxCD3HL BiTE
B4: SC16.15 DLL3LH×CD3HL (bispecific antibody)
chain: DIQMTQSPASLAASVGETVAITCRASENIYYNLAWYQQKQGKSPQLLIYTANSLEDGVPSRFSGSGSGTQYSLKINSMQPEDSATYFCKQAYDVPPTFGGGTKLEIKGGGGSGGGGSGGGGSQVQLQQSGAELAKPGASVKMSCKASGYTFTRYWIHWIKQRPGQGLEWIGYINPTTVYTEFNQNFKDKATLTADKSSTTASMQLSSLTSEDSAVYYCARGGSNFFDYWGQGTTLTVSSGGGGSEVQLVESGGGLVQPGKSLKLSCEASGFTFSGYGMHWVRQAPGRGLESVAYITSSSINIKYADAVKGRFTVSRDNAKNLLFLQMNILKSEDTAMYYCARFDWDKNYWGQGTMVTVSSGGGGSGGGGSGGGGSDIQMTQSPSSLPASLGDRVTINCQASQDISNYLNWYQQKPGKAPKLLIYYTNKLADGVPSRFSGSGSGRDSSFTISSLESEDIGSYYCQQYYNYPWTFGPGTKLEIKDYKDDDDK
notes: the leader is left out here; Tested as HEK293T supernatant; also called SC16.15 DLL3LHxCD3HL BiTE
B5: SC16.56 DLL3HL×CD3HL (bispecific antibody)
chain: QIQLVQSGPELKKPGETVKISCKASGYTFTNYGMNWVKQAPGKGLKWMAWINTYTGEPTYADDFKGRFAFSLETSASTASLQIINLKNEDTATYFCARIGDSSPSDYWGQGTTLTVSSGGGGSGGGGSGGGGSSIVMTQTPKFLLVSAGDRVTITCKASQSVSNDVVWYQQKPGQSPKLLIYYASNRYTGVPDRFAGSGYGTDFSFTISTVQAEDLAVYFCQQDYTSPWTFGGGTKLEIRGGGGSEVQLVESGGGLVQPGKSLKLSCEASGFTFSGYGMHWVRQAPGRGLESVAYITSSSINIKYADAVKGRFTVSRDNAKNLLFLQMNILKSEDTAMYYCARFDWDKNYWGQGTMVTVSSGGGGSGGGGSGGGGSDIQMTQSPSSLPASLGDRVTINCQASQDISNYLNWYQQKPGKAPKLLIYYTNKLADGVPSRFSGSGSGRDSSFTISSLESEDIGSYYCQQYYNYPWTFGPGTKLEIKDYKDDDDK
notes: the leader is left out here; Tested as HEK293T supernatant; also called SC16.56 DLL3HLxCD3HL BiTE
B6: SC16.34 DLL3LH×CD3HL (bispecific antibody)
chain: SIVMTQTPKFLLVSAGDRVTITCKASQSVSNDVAWYQQKPGQSPKLLIYYASNRYSGVPDRFTGSGYGTDFTFTISTVQAEDLAVYFCQQDYSSPWTFGGGTKLEIKGGGGSGGGGSGGGGSQIQLVQSGPELKRPGETVKISCKASGYTFTNYGMNWVKQAPGKGLKWMGWINTYTGDPTYADDFKGRFAFSLETSASTAYLQINNLKNEDTATYFCARIGGNSPSDYWGQGTSLTVSSGGGGSEVQLVESGGGLVQPGKSLKLSCEASGFTFSGYGMHWVRQAPGRGLESVAYITSSSINIKYADAVKGRFTVSRDNAKNLLFLQMNILKSEDTAMYYCARFDWDKNYWGQGTMVTVSSGGGGSGGGGSGGGGSDIQMTQSPSSLPASLGDRVTINCQASQDISNYLNWYQQKPGKAPKLLIYYTNKLADGVPSRFSGSGSGRDSSFTISSLESEDIGSYYCQQYYNYPWTFGPGTKLEIKDYKDDDDK
notes: the leader is left out here; also called SC16.34 DLL3LHxCD3HL BiTE

How the values were obtained:
Human DLL3 (R&D Systems) [1] = biological target: T1, Human DLL3 (R&D Systems); assay: bridging ELISA (human DLL3 coated, CD3e-Fc detection) with engagers purified on ANTI-FLAG M2 Affinity Gel
Experimental: (§1) The expressed DLL3×CD3 bispecific T-cell engagers also were evaluated for binding to DLL3 and to CD3 with an ELISA. This ELISA was developed to detect correctly folded DLL3×CD3 bispecific T-cell engager binding to DLL3 and CD3 in the same assay. Human DLL3 (R&D Systems) was coated overnight at 4° C. on a high protein-binding 96-well plate, at a concentration of 1 ug/ml. The wells then were washed three times with PBS 0.05% Tween-20, and the wells were blocked with ELISA blocking buffer for 1 hour at room temperature. The wells then were washed three times with PBS 0.05% Tween-20. HEK293T cell culture supernatants, containing the DLL3×CD3 bispecific T-cell engagers, were added to the wells and incubated for 2 hours at room temperature. The wells were washed three times with PBS 0.05% Tween-20, and human IgG Fc conjugated CD3e was added to the wells (Acro Biosystems), and incubated for one hour at room temperature. The wells again were washed three times with PBS 0.05% Tween-20, and horseradish peroxidase (HRP)-conjugated anti-human antibody was added for a 1 hour incubation. The wells were then washed three times with PBS 0.05% Tween-20, and detection reagent (3,3′,5,5′-tetramethylbenzidine (TMB), Thermo Fisher Scientific) was added to the wells. The enzymatic reaction was stopped with sulfuric acid (BioLegend), and the optical densities were read at 450 nm.
The table below provides the results of this ELISA, shown as the absorbance at 450 nm. All of the SC16.56 DLL3LH×CD3HL, SC16.34 DLL3HL×CD3HL, and SC16.34 DLL3LH×CD3HL BiTE antibodies were detected, showing that these BiTEs antibodies are fully functional. […] In a separate experiment, the bispecific T-cell engagers were purified using ANTI-FLAG M2 Affinity Gel (Sigma) and run on this ELISA. SC16.34 DLL3LH×CD3HL was the only purified BiTE to show ELISA signal above background.

Human DLL3 (R&D Systems) [2] = biological target: T1, Human DLL3 (R&D Systems); assay: bridging ELISA: human DLL3 coated at 1 ug/ml, HEK293T supernatant, detection by human IgG Fc conjugated CD3e + anti-human-HRP (signal needs binding to both DLL3 and CD3e); untransfected 0.010
Experimental: as §1

DLL3 on SHP77 cells [3] = biological target: T2, DLL3 on SHP77 cells; assay: flow cytometry on SHP77 cells, concentrated HEK supernatant, Protein L biotin + Streptavidin APC; percent APC positive cells
Experimental: (§2) 500,000 SHP77 cells were seeded in wells of a V-bottom 96-well plate. The cells were washed once with PBS+2% FBS by centrifugation at 1300 RPM for 3 minutes. The cells were resuspended in 50 uL PBS+2% FBS containing concentrated HEK supernatant corresponding to either untransfected cells or cells transfected with a BiTE. After 30 minutes, the cells were washed twice with PBS+2% FBS by centrifugation at 1300 RPM for 3 minutes. The cells were then resuspended in 50 uL PBS+2% FBS containing either anti-Flag biotin (Sigma) at 1:100 dilution or Protein L biotin (Genscript) at 1:200 dilution, and incubated on ice for 30 minutes. The cells were washed twice with PBS+2% FBS by centrifugation at 1300 RPM for 3 minutes. Subsequently, the cells were stained with Streptavidin APC (Biolegend) at 1:200 dilution and incubated on ice for 30 minutes in the dark.
(§3) The cells were washed twice with PBS+2% FBS by centrifugation at 1300 RPM for 3 minutes and resuspended in DAPI diluted 1:6000 in PBS+2% FBS. Flow cytometry data were acquired using the ACEA NovoCyte® flow cytometer (ACEA Biosciences, Inc.), and analyzed using the FlowJo™ software (Tree Star, Inc.).

DLL3 on SHP77 cells [4] = biological target: T2, DLL3 on SHP77 cells; assay: flow cytometry on SHP77 cells, concentrated HEK supernatant, anti-Flag biotin + Streptavidin APC; percent APC positive cells
Experimental: as §2, §3

Binder	binding result (Human DLL3 (R&D Systems) [1])	Absorbance at 450 nm (Human DLL3 (R&D Systems) [2])	% Binding to SHP77 Detected by Protein L (DLL3 on SHP77 cells [3])	% Binding to SHP77 Detected by anti-Flag (DLL3 on SHP77 cells [4])
B1	no binding	0.002 absorbance (450 nm)		
B2		0.253 absorbance (450 nm)	36.6%	19.6%
B3		0.175 absorbance (450 nm)	36.4%	20.9%
B4	no binding	0.001 absorbance (450 nm)		
B5	no binding	0.007 absorbance (450 nm)		
B6		1.46 absorbance (450 nm)	36.4%	20.1%
